# Reference: patent publication US20250011363A1, “OPTIMIZED SHORTENED PEPTIDE THAT BINDS TO ACETYLCHOLINE RECEPTOR, AND USE THEREOF” (SKINMED CO., LTD., priority 2021, published 2025)
# Biological target: acetylcholine receptor
# Experiment: SPR, AchR on chip, peptide 10 uM
row,Binder,Binding affinity (RU)
1,RLLSR [5mer-28],74 RU
2,RWQLR [5mer-330],86 RU
3,RRYCR [5mer-332],85 RU
4,KSQLR [5mer-30],70 RU
5,RVLCR [5mer-327],86 RU
6,RRFCR [5mer-329],79 RU
7,RGIQR [5mer-331],79 RU
8,RQLSR [5mer-32],75 RU
9,RQQQR [5mer-26],65 RU
10,RRLQR [5mer-31],65 RU
11,RWVLK [5mer-328],61 RU
12,KGFCR [5mer-29],63 RU
13,KGYLR [5mer-27],67 RU
14,RRFTK [5mer-326],68 RU

# Biological target: acetylcholine receptor
# Experiment: SPR, receptor immobilized on CM5 chip, peptide 10 uM
row,Binder,Binding affinity (RU)
1,RSRYKK [6mer-2-419],154 RU
2,RLILKR [6mer-2-413],136 RU
3,KQVSKR [6mer-2-407],122 RU
4,KGYRKK [6mer-2-405],137 RU
5,RLQYRK [6mer-2-423],154 RU
6,KGQRRK [6mer-2-426],141 RU
7,KRRRKR [6mer-2-409],139 RU
8,KVICRK [6mer-2-421],124 RU
9,KGIYRR [6mer-2-406],139 RU
10,KRFRKK [6mer-2-410],153 RU
11,KRFLKK [6mer-2-412],139 RU
12,RLYCKK [6mer-2-424],139 RU
13,RVQYKK [6mer-2-418],121 RU
14,KGRCKK [6mer-2-415],149 RU
15,RWVYKK [6mer-2-417],151 RU
16,KWRQKK [6mer-2-414],135 RU
17,RRQYRK [6mer-2-420],128 RU
18,RVLSKR [6mer-2-404],121 RU
19,RLITRR [6mer-2-422],154 RU
20,RSRQKK [6mer-2-411],121 RU
21,KLQTKK [6mer-2-425],145 RU
22,RWRLRR [6mer-2-416],131 RU
23,KQIYRR [6mer-2-408],139 RU

# More lines, now with the values ahead:
row,Binding affinity (RU),Binder
1,139 RU,RWFRRR [6mer-2-430]
2,154 RU,RGRCRR [6mer-2-449]
3,154 RU,RVIRRK [6mer-2-434]
4,149 RU,KSVCRR [6mer-2-461]
5,122 RU,RQYCRR [6mer-2-443]
6,142 RU,KVFLKK [6mer-2-428]
7,147 RU,RLQRRR [6mer-2-427]
8,123 RU,RQRYRK [6mer-2-450]
9,123 RU,RWRQRK [6mer-2-429]
10,121 RU,KQVCKK [6mer-2-437]
11,139 RU,RSQCRK [6mer-2-460]
12,141 RU,RLVRKK [6mer-2-453]
13,139 RU,KLFSRK [6mer-2-459]
14,128 RU,RSFRRR [6mer-2-448]
15,122 RU,RRFQRR [6mer-2-458]
16,139 RU,RVYTKK [6mer-2-447]
17,153 RU,RQLQKK [6mer-2-446]
18,131 RU,RLLCRK [6mer-2-438]
19,146 RU,KGLYKR [6mer-2-452]
20,147 RU,KSVTKR [6mer-2-456]
21,148 RU,KVLYKR [6mer-2-436]

row,Binding affinity (RU),Binder
1,154 RU,RWVYKR [6mer-2-435]
2,153 RU,KQLSKK [6mer-2-440]
3,145 RU,KQICKR [6mer-2-462]
4,139 RU,RWIQKR [6mer-2-433]
5,135 RU,KLILKR [6mer-2-431]
6,133 RU,RSVQKK [6mer-2-454]
7,124 RU,KLLTRR [6mer-2-463]
8,148 RU,KVVRKR [6mer-2-432]
9,153 RU,KWFSKR [6mer-2-439]
10,135 RU,RWYSKR [6mer-2-455]
11,145 RU,RLVCKR [6mer-2-445]
12,146 RU,RRVYKR [6mer-2-457]
13,148 RU,RGRCKK [6mer-2-451]
14,135 RU,KSFRKK [6mer-2-464]
15,141 RU,RQRLKK [6mer-2-444]
16,122 RU,KGVSKR [6mer-2-465]
17,139 RU,RLVQKR [6mer-2-442]
18,142 RU,KQYSRR [6mer-2-467]
19,139 RU,KSQRKR [6mer-2-441]
20,142 RU,RLLTRR [6mer-2-466]
